T1: APBA1_2, Q02410
T1 sequence (Q02410 742-832, limits assumed, looked up): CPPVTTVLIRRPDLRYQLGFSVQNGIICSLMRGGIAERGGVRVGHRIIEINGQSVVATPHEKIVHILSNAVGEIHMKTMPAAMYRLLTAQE

T2: GRIP1_2, Q9Y3R0
T2 sequence (Q9Y3R0 145-248, limits assumed, looked up): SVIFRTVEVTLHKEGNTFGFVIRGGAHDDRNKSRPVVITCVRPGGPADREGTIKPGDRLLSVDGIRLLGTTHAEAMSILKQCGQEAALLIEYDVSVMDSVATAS

T3: PCLO, Q9Y6V0
T3 sequence (Q9Y6V0 4491-4600, limits assumed, looked up): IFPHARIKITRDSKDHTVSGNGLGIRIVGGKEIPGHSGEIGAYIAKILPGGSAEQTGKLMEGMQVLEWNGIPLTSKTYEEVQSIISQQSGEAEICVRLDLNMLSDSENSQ

T4: GRIP1_3, Q9Y3R0
T4 sequence (Q9Y3R0 247-346, limits assumed, looked up): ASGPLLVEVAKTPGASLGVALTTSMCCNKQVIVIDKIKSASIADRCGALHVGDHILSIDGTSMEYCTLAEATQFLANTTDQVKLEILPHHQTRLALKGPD

T5: HTRA4, P83105
T5 sequence (P83105 378-476, limits assumed, looked up): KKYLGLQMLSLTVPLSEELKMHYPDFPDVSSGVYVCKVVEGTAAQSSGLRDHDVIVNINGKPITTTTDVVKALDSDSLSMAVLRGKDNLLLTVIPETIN

T6: APBA1_1, Q02410
T6 sequence (Q02410 651-752, limits assumed, looked up): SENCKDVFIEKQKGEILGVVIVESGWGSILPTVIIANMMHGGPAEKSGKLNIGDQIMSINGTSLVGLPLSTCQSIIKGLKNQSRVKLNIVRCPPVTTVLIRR

T7: GRIP1_4, Q9Y3R0
T7 sequence (Q9Y3R0 467-571, limits assumed, looked up): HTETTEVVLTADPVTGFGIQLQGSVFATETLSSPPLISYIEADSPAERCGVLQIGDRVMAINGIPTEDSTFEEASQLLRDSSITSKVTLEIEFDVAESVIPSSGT

T8: LRRC7, Q96NW7
T8 sequence (Q96NW7 1440-1537, limits assumed, looked up): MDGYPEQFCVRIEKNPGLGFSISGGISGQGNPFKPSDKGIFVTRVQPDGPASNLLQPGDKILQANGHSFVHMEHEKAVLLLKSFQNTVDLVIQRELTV

T9: PARD3B_1, Q8TEW8
T9 sequence (Q8TEW8 196-299, limits assumed, looked up): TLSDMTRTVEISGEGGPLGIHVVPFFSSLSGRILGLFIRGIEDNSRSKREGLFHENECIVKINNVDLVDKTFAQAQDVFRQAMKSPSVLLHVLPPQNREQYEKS

T10: TIAM2, Q8IVF5
T10 sequence (Q8IVF5 885-986, limits assumed, looked up): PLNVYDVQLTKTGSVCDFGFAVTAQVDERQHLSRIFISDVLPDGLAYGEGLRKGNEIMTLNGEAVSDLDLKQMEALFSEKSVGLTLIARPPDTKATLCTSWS

T11: LIN7A, O14910
T11 sequence (O14910 103-200, limits assumed, looked up): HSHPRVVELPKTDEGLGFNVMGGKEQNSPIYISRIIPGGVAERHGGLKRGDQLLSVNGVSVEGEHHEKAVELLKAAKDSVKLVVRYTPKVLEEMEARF


These binders were tested against FRMPD2_2, Q68DX3 (assay: holdup assay). Details: plain residues with an end cap or a label only (N-terminal biotin on a linker: ado-ado).
Sequence of FRMPD2_2, Q68DX3 (Q68DX3 944-1038): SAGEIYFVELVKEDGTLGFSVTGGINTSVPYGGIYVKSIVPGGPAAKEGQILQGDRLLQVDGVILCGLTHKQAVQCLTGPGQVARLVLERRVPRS
Parameters: key: below the threshold = too weak to quantify, mostly under pKd 3.1 to 4
SLNANEVEWF [RNF130, Q86XS8] was tested, and the pKd was 3.59.

The binders below were run against DLG5_1, Q8TDM6 (assay: holdup assay). Details: plain residues with an end cap or a label only (N-terminal biotin on a linker: ado-ado).
Sequence of DLG5_1, Q8TDM6 (Q8TDM6 617-713): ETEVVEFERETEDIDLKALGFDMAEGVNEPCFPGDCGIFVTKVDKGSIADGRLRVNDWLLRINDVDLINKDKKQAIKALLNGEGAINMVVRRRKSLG
Parameters: key: below the threshold = too weak to quantify, mostly under pKd 3.1 to 4
SLNANEVEWF [RNF130, Q86XS8] was tested, and the pKd was “below the threshold”.

What follows are binders tested against MAGI2_2, Q86UL8 (assay: holdup assay). Details: plain residues with an end cap or a label only (N-terminal biotin on a linker: ado-ado).
Sequence of MAGI2_2, Q86UL8 (Q86UL8 410-522): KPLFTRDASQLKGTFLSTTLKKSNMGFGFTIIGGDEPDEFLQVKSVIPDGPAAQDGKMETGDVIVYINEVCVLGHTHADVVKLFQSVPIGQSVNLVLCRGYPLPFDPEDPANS
Parameters: key: below the threshold = too weak to quantify, mostly under pKd 3.1 to 4
SLNANEVEWF [RNF130, Q86XS8] was tested, and the pKd was “below the threshold”.

What follows are binders tested against PICK1, Q9NRD5 (assay: holdup assay). Details: plain residues with an end cap or a label only (N-terminal biotin on a linker: ado-ado).
Sequence of PICK1, Q9NRD5 (Q9NRD5 17-115): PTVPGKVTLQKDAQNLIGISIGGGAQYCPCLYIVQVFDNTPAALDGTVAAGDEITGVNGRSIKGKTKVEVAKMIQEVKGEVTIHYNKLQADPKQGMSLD
Parameters: key: below the threshold = too weak to quantify, mostly under pKd 3.1 to 4
For SLNANEVEWF [RNF130, Q86XS8], the pKd was “below the threshold”.

What follows are binders tested against Inadl_9, Q8NI35 (assay: holdup assay). Details: plain residues with an end cap or a label only (N-terminal biotin on a linker: ado-ado).
Sequence of Inadl_9, Q8NI35 (Q8NI35 1530-1615): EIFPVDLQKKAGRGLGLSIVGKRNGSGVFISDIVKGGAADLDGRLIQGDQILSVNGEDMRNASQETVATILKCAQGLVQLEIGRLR
Parameters: key: below the threshold = too weak to quantify, mostly under pKd 3.1 to 4
With SLNANEVEWF [RNF130, Q86XS8] the pKd was “below the threshold”.

Each binder was assayed against Inadl_8, Q8NI35 (assay: holdup assay). Details: plain residues with an end cap or a label only (N-terminal biotin on a linker: ado-ado).
Sequence of Inadl_8, Q8NI35 (Q8NI35 1425-1530): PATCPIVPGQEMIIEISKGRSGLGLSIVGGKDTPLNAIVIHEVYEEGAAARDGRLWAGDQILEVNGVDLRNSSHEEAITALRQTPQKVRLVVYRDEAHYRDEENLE
Parameters: key: below the threshold = too weak to quantify, mostly under pKd 3.1 to 4
For SLNANEVEWF [RNF130, Q86XS8], the pKd was “below the threshold”.

What follows are binders tested against T1, APBA1_2, Q02410 (assay: holdup assay). Details: plain residues with an end cap or a label only (N-terminal biotin on a linker: ado-ado).
Parameters: key: below the threshold = too weak to quantify, mostly under pKd 3.1 to 4
Binder SLNANEVEWF [RNF130, Q86XS8] has a pKd of 3.79.

Each binder was assayed against T2, GRIP1_2, Q9Y3R0 (assay: holdup assay). Details: plain residues with an end cap or a label only (N-terminal biotin on a linker: ado-ado).
Parameters: key: below the threshold = too weak to quantify, mostly under pKd 3.1 to 4
SLNANEVEWF [RNF130, Q86XS8] showed a pKd of 3.68.

Each binder was assayed against GOPC, Q9HD26 (assay: holdup assay). Details: plain residues with an end cap or a label only (N-terminal biotin on a linker: ado-ado).
Parameters: key: below the threshold = too weak to quantify, mostly under pKd 3.1 to 4
In the case of SLNANEVEWF [RNF130, Q86XS8], the pKd is reported as “below the threshold”.

The binders below were run against T3, PCLO, Q9Y6V0 (assay: holdup assay). Details: plain residues with an end cap or a label only (N-terminal biotin on a linker: ado-ado).
Parameters: key: below the threshold = too weak to quantify, mostly under pKd 3.1 to 4
SLNANEVEWF [RNF130, Q86XS8] was tested, and the pKd was “below the threshold”.

These binders were tested against GRIP2_3, Q9C0E4 (assay: holdup assay). Details: plain residues with an end cap or a label only (N-terminal biotin on a linker: ado-ado).
Sequence of GRIP2_3, Q9C0E4 (Q9C0E4 238-339): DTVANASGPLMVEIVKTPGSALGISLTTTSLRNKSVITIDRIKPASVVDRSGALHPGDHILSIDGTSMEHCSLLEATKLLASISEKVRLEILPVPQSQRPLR
Parameters: key: below the threshold = too weak to quantify, mostly under pKd 3.1 to 4
With SLNANEVEWF [RNF130, Q86XS8] the pKd was “below the threshold”.

These binders were tested against ARHGEF12, Q9NZN5-2 (assay: holdup assay). Details: plain residues with an end cap or a label only (N-terminal biotin on a linker: ado-ado).
Sequence of ARHGEF12, Q9NZN5-2 (Q9NZN5 other isoform, or with tags, fused parts or gaps): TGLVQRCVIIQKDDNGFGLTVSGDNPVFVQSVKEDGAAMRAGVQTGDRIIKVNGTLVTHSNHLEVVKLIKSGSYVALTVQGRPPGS
Parameters: key: below the threshold = too weak to quantify, mostly under pKd 3.1 to 4
In the case of SLNANEVEWF [RNF130, Q86XS8], the pKd is reported as “below the threshold”.

These binders were tested against T4, GRIP1_3, Q9Y3R0 (assay: holdup assay). Details: plain residues with an end cap or a label only (N-terminal biotin on a linker: ado-ado).
Parameters: key: below the threshold = too weak to quantify, mostly under pKd 3.1 to 4
With SLNANEVEWF [RNF130, Q86XS8] the pKd was “below the threshold”.

Each binder was assayed against PDZRN4_1, Q6ZMN7 (assay: holdup assay). Details: plain residues with an end cap or a label only (N-terminal biotin on a linker: ado-ado).
Sequence of PDZRN4_1, Q6ZMN7 (Q6ZMN7 213-318): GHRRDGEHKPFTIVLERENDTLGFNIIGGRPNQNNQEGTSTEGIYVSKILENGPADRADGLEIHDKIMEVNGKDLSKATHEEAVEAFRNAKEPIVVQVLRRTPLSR
Parameters: key: below the threshold = too weak to quantify, mostly under pKd 3.1 to 4
SLNANEVEWF [RNF130, Q86XS8] was tested, and the pKd was “below the threshold”.

The binders below were run against T5, HTRA4, P83105 (assay: holdup assay). Details: plain residues with an end cap or a label only (N-terminal biotin on a linker: ado-ado).
Parameters: key: below the threshold = too weak to quantify, mostly under pKd 3.1 to 4
In the case of SLNANEVEWF [RNF130, Q86XS8], the pKd is reported as 3.81.

Each binder was assayed against NHERF2_2, Q15599 (assay: holdup assay). Details: plain residues with an end cap or a label only (N-terminal biotin on a linker: ado-ado).
Sequence of NHERF2_2, Q15599 (Q15599 142-238): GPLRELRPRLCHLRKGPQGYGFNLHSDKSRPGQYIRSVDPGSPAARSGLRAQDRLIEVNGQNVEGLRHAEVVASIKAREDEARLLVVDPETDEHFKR
Parameters: key: below the threshold = too weak to quantify, mostly under pKd 3.1 to 4
For SLNANEVEWF [RNF130, Q86XS8], the pKd was 4.56.

These binders were tested against Inadl_2, Q8NI35 (assay: holdup assay). Details: plain residues with an end cap or a label only (N-terminal biotin on a linker: ado-ado).
Sequence of Inadl_2, Q8NI35 (Q8NI35 238-335): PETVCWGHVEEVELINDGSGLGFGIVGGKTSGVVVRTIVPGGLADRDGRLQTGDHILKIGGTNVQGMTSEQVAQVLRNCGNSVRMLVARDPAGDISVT
Parameters: key: below the threshold = too weak to quantify, mostly under pKd 3.1 to 4
SLNANEVEWF [RNF130, Q86XS8] gave a pKd of 4.09.

These binders were tested against NOS1, P29475 (assay: holdup assay). Details: plain residues with an end cap or a label only (N-terminal biotin on a linker: ado-ado).
Sequence of NOS1, P29475 (P29475 9-101): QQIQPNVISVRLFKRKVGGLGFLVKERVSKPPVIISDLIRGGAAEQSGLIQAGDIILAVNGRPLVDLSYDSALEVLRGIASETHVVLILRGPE
Parameters: key: below the threshold = too weak to quantify, mostly under pKd 3.1 to 4
Work on SLNANEVEWF [RNF130, Q86XS8] yielded a pKd of 4.

The binders below were run against T6, APBA1_1, Q02410 (assay: holdup assay). Details: plain residues with an end cap or a label only (N-terminal biotin on a linker: ado-ado).
Parameters: key: below the threshold = too weak to quantify, mostly under pKd 3.1 to 4
SLNANEVEWF [RNF130, Q86XS8] was tested, and the pKd was 3.56.

These binders were tested against T7, GRIP1_4, Q9Y3R0 (assay: holdup assay). Details: plain residues with an end cap or a label only (N-terminal biotin on a linker: ado-ado).
Parameters: key: below the threshold = too weak to quantify, mostly under pKd 3.1 to 4
For SLNANEVEWF [RNF130, Q86XS8], the pKd was “below the threshold”.

What follows are binders tested against T8, LRRC7, Q96NW7 (assay: holdup assay). Details: plain residues with an end cap or a label only (N-terminal biotin on a linker: ado-ado).
Parameters: key: below the threshold = too weak to quantify, mostly under pKd 3.1 to 4
For SLNANEVEWF [RNF130, Q86XS8], the pKd was “below the threshold”.

These binders were tested against PARD3_3, Q8TEW0 (assay: holdup assay). Details: plain residues with an end cap or a label only (N-terminal biotin on a linker: ado-ado).
Sequence of PARD3_3, Q8TEW0 (Q8TEW0 582-685): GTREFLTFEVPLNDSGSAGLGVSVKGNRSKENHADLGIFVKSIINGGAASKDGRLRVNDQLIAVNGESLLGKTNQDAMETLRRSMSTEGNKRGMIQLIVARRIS
Parameters: key: below the threshold = too weak to quantify, mostly under pKd 3.1 to 4
SLNANEVEWF [RNF130, Q86XS8] gave a pKd of 5.28.

The binders below were run against T9, PARD3B_1, Q8TEW8 (assay: holdup assay). Details: plain residues with an end cap or a label only (N-terminal biotin on a linker: ado-ado).
Parameters: key: below the threshold = too weak to quantify, mostly under pKd 3.1 to 4
Work on SLNANEVEWF [RNF130, Q86XS8] yielded a pKd of 4.35.

The binders below were run against T10, TIAM2, Q8IVF5 (assay: holdup assay). Details: plain residues with an end cap or a label only (N-terminal biotin on a linker: ado-ado).
Parameters: key: below the threshold = too weak to quantify, mostly under pKd 3.1 to 4
SLNANEVEWF [RNF130, Q86XS8] showed a pKd of 4.16.

Each binder was assayed against T11, LIN7A, O14910 (assay: holdup assay). Details: plain residues with an end cap or a label only (N-terminal biotin on a linker: ado-ado).
Parameters: key: below the threshold = too weak to quantify, mostly under pKd 3.1 to 4
For SLNANEVEWF [RNF130, Q86XS8], the pKd was “below the threshold”.

Each binder was assayed against DLG2_2, Q15700 (assay: holdup assay). Details: plain residues with an end cap or a label only (N-terminal biotin on a linker: ado-ado).
Sequence of DLG2_2, Q15700 (Q15700 189-283): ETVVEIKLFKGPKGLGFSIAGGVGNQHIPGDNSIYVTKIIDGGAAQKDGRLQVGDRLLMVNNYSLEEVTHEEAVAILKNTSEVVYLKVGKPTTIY
Parameters: key: below the threshold = too weak to quantify, mostly under pKd 3.1 to 4
With SLNANEVEWF [RNF130, Q86XS8] the pKd was “below the threshold”.

From PMC9482650, “Quantitative fragmentomics allow affinity mapping of interactomes” (Nature Communications, 2022)
